Measured values published in the Human Domainome abundance scans (Beltran et al. 2025).
± gives the uncertainty stated by the source.

B1: Ankyrin-2, residues 3571 to 3650; numbered along this chain, Q01484 (parent)
chain: ERLAYIADHLGFSWTELARELDFTEEQIHQIRIENPNSLQDQSHALLKYWLERDGKHATDTNLVECLTKINRMDIVHLME

Variants of: B1
Test: abundance fitness (aPCA) (normalised: wild type 0, dead -1); higher = more abundant; growth selection in yeast, the domain comes from the species named
Settings: Homo sapiens

| Variant | abundance fitness |
| --- | --- |
| D60C | -0.043 ± 0.098 |
| D60A | -0.07 ± 0.071 |
| D60M | 0.019 ± 0.11 |
| L46V | -0.075 ± 0.46 |
| L46C | 0.184 ± 0.37 |
| R2D | 0.107 ± 0.35 |
| R2W | 0.056 ± 0.24 |
| T61V | 0.112 ± 0.12 |
| T61Q | -0.093 ± 0.14 |
| T61Y | -0.087 ± 0.14 |
| E16L | 0.032 ± 0.07 |
| E16Q | 0.202 ± 0.098 |
| E16A | -0.037 ± 0.066 |
| E16G | -0.065 ± 0.057 |
| E16V | -0.104 ± 0.091 |
| E16D | 0.053 ± 0.12 |
| E16R | 0.026 ± 0.054 |
| R19E | 0.101 ± 0.17 |
| R19C | -0.089 ± 0.12 |
| R19Q | 0.046 ± 0.075 |
| R19I | 0.049 ± 0.2 |
| R19L | -0.025 ± 0.057 |
| R19P | -0.208 ± 0.059 |
| M73P | -0.134 ± 0.45 |

| Variant | abundance fitness |
| --- | --- |
| W14H | -0.842 ± 0.43 |
| W14S | -0.812 ± 0.12 |
| W14Y | -0.31 ± 0.32 |
| W14F | -0.199 ± 0.17 |
| W14A | -0.572 ± 0.089 |
| W14N | -0.348 ± 0.23 |
| W14P | -0.958 ± 0.19 |
| I31P | -1.19 ± 0.17 |
| I31S | -0.772 ± 0.087 |
| I31Y | -0.42 ± 0.18 |
| I31Q | -0.743 ± 0.12 |
| I31D | -1 ± 0.29 |
| I70R | -0.551 ± 0.064 |
| I70V | -0.035 ± 0.14 |
| I70W | -0.789 ± 0.21 |
| L47F | 0.046 ± 0.13 |
| L47R | -0.541 ± 0.062 |
| L47Y | -0.148 ± 0.18 |
| L47D | -0.935 ± 0.45 |
| L47P | -1.28 ± 0.16 |
| S38T | -0.039 ± 0.065 |
| A7E | -0.265 ± 0.21 |
| A7K | -0.041 ± 0.25 |
| A7L | -0.008 ± 0.11 |

| Variant | abundance fitness |
| --- | --- |
| S13K | -0.224 ± 0.14 |
| S13G | -0.035 ± 0.074 |
| S13W | -0.17 ± 0.094 |
| S13R | -0.077 ± 0.084 |
| R32M | -0.065 ± 0.13 |
| R32A | -0.096 ± 0.069 |
| R32H | 0.034 ± 0.097 |
| R32E | 0.058 ± 0.17 |
| R32G | -0.05 ± 0.067 |
| R32S | -0.059 ± 0.061 |
| C66G | -0.045 ± 0.042 |
| C66W | -0.058 ± 0.064 |
| C66S | -0.013 ± 0.056 |
| C66N | -0.092 ± 0.17 |
| C66Q | -0.018 ± 0.093 |
| D41C | -0.109 ± 0.072 |
| D41A | -0.01 ± 0.071 |
| D41Q | -0.024 ± 0.11 |
| L39K | -0.087 ± 0.13 |
| L39R | -0.109 ± 0.053 |
| L39T | -0.134 ± 0.074 |
| L39H | -0.155 ± 0.14 |
| L39I | 0.071 ± 0.25 |
| L39S | -0.025 ± 0.061 |

| Variant | abundance fitness |
| --- | --- |
| Q30A | -0.082 ± 0.058 |
| Q30G | -0.079 ± 0.065 |
| Q30E | 0.005 ± 0.12 |
| R72S | 0.223 ± 0.26 |
| R72P | -0.588 ± 0.093 |
| R72A | -0.205 ± 0.21 |
| R72V | -0.568 ± 0.15 |
| N62T | -0.029 ± 0.083 |
| N62V | 0.035 ± 0.056 |
| N62Q | -0.082 ± 0.089 |
| L17W | -0.692 ± 0.11 |
| L17A | -0.134 ± 0.076 |
| L17Y | -0.478 ± 0.16 |
| L17F | 0.08 ± 0.12 |
| K56C | 0.067 ± 0.097 |
| K56W | -0.126 ± 0.063 |
| K56P | -0.05 ± 0.063 |
| K56T | -0.01 ± 0.073 |
| K56L | -0.043 ± 0.054 |
| K56I | -0.084 ± 0.13 |
| E52M | -0.083 ± 0.12 |
| E52P | -0.378 ± 0.12 |
| A18W | -0.859 ± 0.34 |
| A18P | -1.17 ± 0.22 |

| Variant | abundance fitness |
| --- | --- |
| A18V | -0.687 ± 0.12 |
| H44Y | -0.21 ± 0.27 |
| H44V | 0.085 ± 0.098 |
| H44D | -0.935 ± 0.45 |
| H44L | -0.008 ± 0.099 |
| L67G | -0.84 ± 0.12 |
| L67R | -1.09 ± 0.13 |
| E34L | -0.054 ± 0.049 |
| E34T | -0.049 ± 0.069 |
| E34V | -0.021 ± 0.051 |
| E34D | -0.129 ± 0.18 |
| S43Y | -0.508 ± 0.43 |
| S43M | -1.13 ± 0.43 |
| S43G | -0.093 ± 0.13 |
| T15V | -0.009 ± 0.072 |
| T15C | -0.062 ± 0.12 |
| T15H | -0.309 ± 0.2 |
| T15N | -0.038 ± 0.21 |
| N35R | -0.033 ± 0.048 |
| N35F | -0.091 ± 0.14 |
| N35C | -0.053 ± 0.084 |
| N35W | -0.049 ± 0.065 |
| N35T | -0.071 ± 0.08 |
| N35Y | -0.07 ± 0.17 |

| Variant | abundance fitness |
| --- | --- |
| N35Q | 0.066 ± 0.08 |
| N35I | -0.087 ± 0.11 |
| Y5L | 0.096 ± 0.29 |
| Y5A | 0.066 ± 0.14 |
| W50K | 0.063 ± 0.27 |
| W50N | -0.041 ± 0.17 |
| W50T | -0.05 ± 0.15 |
| W50G | -0.28 ± 0.058 |
| W50V | -0.017 ± 0.066 |
| A4M | 0.004 ± 0.078 |
| A4D | 0.039 ± 0.084 |
| A4T | 0.109 ± 0.048 |
| A4W | -0.11 ± 0.061 |
| K69R | 0.005 ± 0.039 |
| K69F | -0.126 ± 0.1 |
| K69Y | -0.017 ± 0.15 |
| K69P | -0.545 ± 0.038 |
| K69M | -0.068 ± 0.069 |
| K69E | -0.054 ± 0.047 |
| H29T | -0.005 ± 0.085 |
| H29L | -0.006 ± 0.077 |
| H29V | 0.035 ± 0.064 |
| H29Q | -0.025 ± 0.097 |
| H29A | -0.013 ± 0.057 |

| Variant | abundance fitness |
| --- | --- |
| H29I | -0.082 ± 0.079 |
| D8R | 0.031 ± 0.11 |
| D8A | 0.034 ± 0.18 |
| D8I | -0.237 ± 0.41 |
| T24K | 0.162 ± 0.17 |
| T24E | -0.02 ± 0.16 |
| T24S | -0.025 ± 0.054 |
| T24W | -0.409 ± 0.1 |
| T24H | -0.075 ± 0.28 |
| T24N | -0.005 ± 0.088 |
| T24G | -0.014 ± 0.057 |
| T24C | -0.193 ± 0.18 |
| T24L | -0.144 ± 0.057 |
| Q42V | -0.204 ± 0.18 |
| Q42H | -0.807 ± 0.49 |
| Q42C | 0.007 ± 0.17 |
| Q42R | -0.12 ± 0.12 |
| I75F | -0.371 ± 0.34 |
| I75C | -0.297 ± 0.28 |
| I75R | -0.609 ± 0.21 |
| D22H | -0.017 ± 0.25 |
| D22S | 0.012 ± 0.061 |
| D22C | -0.167 ± 0.2 |
